Source: PMC8958347

Columns and labels:
[1] = biological target: Dil labelled LDL (low-density lipoprotein); experiment: MST; purified LDLR^Q722* or wild-type LDLR with Dil labelled LDL; Kd model; three replicates
[2] = biological target: Dil labelled LDL (low-density lipoprotein)
[3] = biological target: Dil labelled LDL (low-density lipoprotein); experiment: MST; sEV^Ad-LDLR-Q722* with Dil-LDL; Kd model; pH 7.4
[4] = biological target: Dil labelled LDL (low-density lipoprotein); experiment: MST; sEV^Ad-LDLR-Q722* with Dil-LDL; Kd model; pH 5.5
[5] = biological target: Dil labelled LDL (low-density lipoprotein); experiment: MST; sEV (isolated from supernatant of infected HepG2) with Dil-LDL; Kd model; pH not stated

| Substance | Kd [1] | uptake of Dil-LDL by Ldlr–/– primary hepatocytes (confocal fluorescence intensity), sEV^Ad-LDLR-Q722* group against the sEV^Ad-LDLR-WT group [2] | uptake of Dil-LDL by Ldlr–/– primary hepatocytes (confocal fluorescence intensity), sEV^Ad-LDLR-Q722* group against the sEV^Ad-control group [2] | Kd [3] | Kd [4] | Kd [5] |
| --- | --- | --- | --- | --- | --- | --- |
| LDLR^Q722* (truncated soluble LDLR, 1-722 amino acids), purified (from UniProt P01130 22-722) (domain or fragment) | 7.89 µM | – | – | – | – | – |
| LDLR^Q722* attached to the surface of small extracellular vesicles (sEV^Ad-LDLR-Q722*) (from UniProt P01130 22-722) (domain or fragment) | – | 3.13 fold | 2.68 fold | 4.98 µM | 0.013 µM | 0.012 µM |
| wild-type LDLR (N-terminal residues 1-788) (from UniProt P01130 22-788) (domain or fragment) | 7.16 µM | – | – | – | – | – |
